The values below come from the supplement of paper PMC11246515.

This series can be described thus: total protein half-life in vivo (active degradation + dilution); higher = more stable protein.
[1] abbreviates: E. coli NCM3722 delta-clpP delta-lon delta-hslV, growth: N-lim chemostat, doubling time 6 h.
Where [2] appears, read: wild type E. coli NCM3722, growth: C-lim chemostat, doubling time 3 h.
The mark [3] stands for this setting: wild type E. coli NCM3722, growth: C-lim chemostat, doubling time 6 h.
[4] abbreviates: wild type E. coli NCM3722, growth: C-lim chemostat, doubling time 12 h.
[5] abbreviates: E. coli NCM3722 delta-hslV, growth: N-lim chemostat, doubling time 6 h.
Where [6] appears, read: wild type E. coli NCM3722, growth: N-lim chemostat, doubling time 6 h.
The mark [7] stands for this setting: wild type E. coli NCM3722, growth: P-lim chemostat, doubling time 12 h.
[8] abbreviates: E. coli NCM3722 delta-clpP, growth: N-lim chemostat, doubling time 6 h.
The mark [9] stands for this setting: E. coli NCM3722 delta-lon, growth: N-lim chemostat, doubling time 6 h.
The mark [10] stands for this setting: E. coli NCM3722 delta-smpB, growth: N-lim chemostat, doubling time 6 h.
Setting [11] is: wild type E. coli NCM3722, growth: N-lim chemostat, doubling time 12 h.
Setting [12] is: wild type E. coli NCM3722, growth: P-lim chemostat, doubling time 6 h.

± gives the standard deviation of the averaged measurements.

Turning to “MLTKDLSITFCGVKFPNPFCLSSSPVGNCYEMCAKAYDTGWGGVVFKTIGFFIANEVSPRFDHLVKEDTGFIGFKNMEQIAEHPLEENLAALRRLKEDYPDKVLIASIMGENEQQWEELARLVQEAGADMIECNFSCPQMTSHAMGSDVGQSPELVEKYCRAVKRGSTLPMLAKMTPNIGDMCEVALAAKRGGADGIAAINTVKSITNIDLNQKIGMPIVNGKSSISGYSGKAVKPIALRFIQQMRTHPELRDFPISGIGGIETWEDAAEFLLLGAATLQVTTGIMQYGYRIVEDMASGLSHYLADQGFDSLQEMVGLANNNIVPAEDLDRSYIVYPRINLDKCVGCGRCYISCYDGGHQAMEWSEKTRTPHCNTEKCVGCLLCGHVCPVGCIELGEVKFKKGEKEHPVTL”, the “total protein half-life in vivo” value under setting [1] amounted to 4.6 h, the “total protein half-life in vivo” value under setting [2] amounted to 0.869 ± 0.52 h, the “total protein half-life in vivo” value under setting [3] is 2.35 h and the “total protein half-life in vivo” value under setting [4] was found to be 1.67 ± 0.23 h.
Consider “MVSNASALGRNGVHDFILVRATAIVLTLYIIYMVGFFATSGELTYEVWIGFFASAFTKVFTLLALFSILIHAWIGMWQVLTDYVKPLALRLMLQLVIVVALVVYVIYGFVVVWGV [P0AC44]”, for which the “total protein half-life in vivo” value under setting [5] worked out at 6.12 ± 0.19 h; the “total protein half-life in vivo” value under setting [2] amounted to 3.03 ± 0.042 h; the “total protein half-life in vivo” value under setting [3] stood at 6.01 ± 0.4 h; the “total protein half-life in vivo” value under setting [4] worked out at 12 ± 4.5 h; the “total protein half-life in vivo” value under setting [6] is 5.87 ± 0.39 h; the “total protein half-life in vivo” value under setting [7] stood at 12.5 h.
For the sequence “MKTLIVSTVLAFITFSAQAAAFQVTSNEIKTGEQLTTSHVFSGFGCEGGNTSPSLTWSGVPEGTKSFAVTVYDPDAPTGSGWWHWTVVNIPATVTYLPVDAGRRDGTKLPTGAVQGRNDFGYAGFGGACPPKGDKPHHYQFKVWALKTEKIPVDSNSSGALVGYMLNANKIATAEITPVYEIK”, the “total protein half-life in vivo” value is, setting by setting: under setting [1], 4.45 ± 0.4 h; under setting [8], 4.74 ± 0.75 h; under setting [9], 5.18 ± 0.93 h; under setting [10], 5.046 ± 0.013 h; under setting [2], 2.24 ± 0.28 h; under setting [3], 3.37 h. Further, the “total protein half-life in vivo” value came out at 7.12 ± 3.5 h under setting [4]; 6.15 ± 0.075 h under setting [6]; 10.9 ± 0.48 h under setting [11]; 6.28 ± 1.6 h under setting [12]; 10.3 ± 1.9 h under setting [7].
Regarding “MKQGLQLRLSQQLAMTPQLQQAIRLLQLSTLELQQELQQALESNPLLEQIDTHEEIDTRETQDSETLDTADALEQKEMPEELPLDASWDTIYTAGTPSGTSGDYIDDELPVYQGETTQTLQDYLMWQVELTPFSDTDRAIATSIVDAVDETGYLTVPLEDILESIGDEEIDIDEVEAVLKRIQRFDPVGVAAKDLRDCLLIQLSQFDKTTPWLEEARLIISDHLDLLANHDFRTLMRVTRLKEDVLKEAVNLIQSLDPRPGQSIQTGEPEYVIPDVLVRKHNGHWTVELNSDSIPRLQINQHYASMCNNARNDGDSQFIRSNLQDAKWLIKSLESRNDTLLRVSRCIVEQQQAFFEQGEEYMKPMVLADIAQAVEMHESTISRVTTQKYLHSPRGIFELKYFFSSHVNTEGGGEASSTAIRALVKKLIAAENPAKPLSDSKLTSLLSEQGIMVARRTVAKYRESLSIPPSNQRKQLV”, the “total protein half-life in vivo” value is 5.34 ± 0.089 h under setting [1]; 4.45 ± 0.42 h under setting [8]; 3.48 ± 0.12 h under setting [5]; 4.78 ± 0.64 h under setting [9]; 3.657 ± 0.022 h under setting [10]; 2.57 ± 0.1 h under setting [2]. The “total protein half-life in vivo” value is 4.75 ± 0.098 h under setting [3]; 7.27 ± 1.6 h under setting [4]; 3.94 ± 0.43 h under setting [6]; 5.68 ± 0.088 h under setting [11]; 3.61 ± 0.56 h under setting [12]; 6.22 ± 0.58 h under setting [7].
For “MTEPLTETPELSAKYAWFFDLDGTLAEIKPHPDQVVVPDNILQGLQLLATASDGALALISGRSMVELDALAKPYRFPLAGVHGAERRDINGKTHIVHLPDAIARDISVQLHTVIAQYPGAELEAKGMAFALHYRQAPQHEDALMTLAQRITQIWPQMALQQGKCVVEIKPRGTSKGEAIAAFMQEAPFIGRTPVFLGDDLTDESGFAVVNRLGGMSVKIGTGATQASWRLAGVPDVWSWLEMITTALQQKRENNRSDDYESFSRSI”, the “total protein half-life in vivo” value under setting [1] was determined as 5.34 ± 2.1 h; the “total protein half-life in vivo” value under setting [8] came out at 3.13 ± 0.27 h; the “total protein half-life in vivo” value under setting [5] was determined as 2.4 ± 0.1 h; the “total protein half-life in vivo” value under setting [9] stood at 2.67 ± 0.028 h; the “total protein half-life in vivo” value under setting [10] stood at 2.32 ± 0.11 h; the “total protein half-life in vivo” value under setting [2] turned out to be 2.55 h. The “total protein half-life in vivo” value is, setting by setting: under setting [3], 4.3 ± 0.26 h; under setting [4], 6.12 ± 0.22 h; under setting [6], 2.5 ± 0.13 h; under setting [11], 3.59 ± 0.55 h; under setting [12], 3.2 ± 1 h; under setting [7], 6.94 ± 0.087 h.
Regarding “MFDSTLNPLWQRYILAVQEEVKPALGCTEPISLALAAAVAAAELEGPVERVEAWVSPNLMKNGLGVTVPGTGMVGLPIAAALGALGGNANAGLEVLKDATAQAIADAKALLAAGKVSVKIQEPCDEILFSRAKVWNGEKWACVTIVGGHTNIVHIETHDGVVFTQQACVAEGEQESPLTVLSRTTLAEILKFVNEVPFAAIRFILDSAKLNCALSQEGLSGKWGLHIGATLEKQCERGLLAKDLSSSIVIRTSAASDARMGGATLPAMSNSGSGNQGITATMPVVVVAEHFGADDERLARALMLSHLSAIYIHNQLPRLSALCAATTAAMGAAAGMAWLVDGRYETISMAISSMIGDVSGMICDGASNSCAMKVSTSASAAWKAVLMALDDTAVTGNEGIVAHDVEQSIANLCALASHSMQQTDRQIIEIMASKAR”, under setting [1], the “total protein half-life in vivo” value was 4.74 ± 0.075 h.
With “MSTEKEKMIAGELYRSADETLSRDRLRARQLIHRYNHSLAEEHTLRQQILADLFGQVTEAYIEPTFRCDYGYNIFLGNNFFANFDCVMLDVCPIRIGDNCMLAPGVHIYTATHPIDPVARNSGAELGKPVTIGNNVWIGGRAVINPGVTIGDNVVVASGAVVTKDVPDNVVVGGNPARIIKKL”, the “total protein half-life in vivo” value runs as follows: under setting [1], 3.81 h; under setting [8], above 8 h; under setting [5], 1.77 h; under setting [2], 3.24 ± 0.56 h; under setting [3], 3.82 ± 0.11 h; under setting [4], 5.15 ± 2.1 h. In addition, the “total protein half-life in vivo” value by setting is: under setting [12], above 8 h; under setting [7], 7.59 ± 1.4 h.
